Laboratory results published in the supplement of paper PMC10065799, “High-throughput profiling of sequence recognition by tyrosine kinases and SH2 domains using bacterial peptide display” (eLife, 2023).

Tests used:
EPHB2 = EPHB2 (UniProt P29323); test: phosphorylation enrichment, bacterial display (enrichment ratio); higher = better substrate or ligand; peptides without Tyr show the background
Fer (mouse) = test: as above
c-Abl (mouse) = test: as above
Jak2 = Jak2 (UniProt O60674); test: as above
c-Src = test: as above
Hck = Hck (UniProt P08631); test: as above
AncSZ = test: as above
Fyn = Fyn (UniProt P06241); test: as above
Fes = Fes (UniProt P07332); test: as above
EPHB1 = EPHB1 (UniProt P54762); test: as above
MERTK = MERTK (UniProt Q12866); test: as above
FGFR3 = FGFR3 (UniProt P22607); test: as above
FGFR1 = FGFR1 (UniProt P11362); test: as above
c-Src SH2 = test: SH2 binding enrichment of the phosphorylated peptide, bacterial display (enrichment ratio); higher = better substrate or ligand; peptides without Tyr show the background
Grb2 SH2 = Grb2 SH2 (UniProt P62993); test: as above
SHP2-C SH2 = test: as above
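Wherever SH2 binding enrichment of the phosphorylated peptide, bacterial display is given: peptide library displayed on the E. coli surface as eCPX fusions, selected cells deep-sequenced, score is each peptide's frequency after selection divided by its frequency in the input.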
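Wherever phosphorylation enrichment, bacterial display is given: 11-residue human phosphosite peptides and single-mutation variants displayed on the E. coli surface, counted by deep sequencing, each peptide's frequency after selection divided by its frequency in the unselected input library; frequency after pTyr selection over input frequency; kinase dosed for 20-30% of maximal phosphorylation in three min.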

Sequence of Fes (P07332 whole entry, looked up): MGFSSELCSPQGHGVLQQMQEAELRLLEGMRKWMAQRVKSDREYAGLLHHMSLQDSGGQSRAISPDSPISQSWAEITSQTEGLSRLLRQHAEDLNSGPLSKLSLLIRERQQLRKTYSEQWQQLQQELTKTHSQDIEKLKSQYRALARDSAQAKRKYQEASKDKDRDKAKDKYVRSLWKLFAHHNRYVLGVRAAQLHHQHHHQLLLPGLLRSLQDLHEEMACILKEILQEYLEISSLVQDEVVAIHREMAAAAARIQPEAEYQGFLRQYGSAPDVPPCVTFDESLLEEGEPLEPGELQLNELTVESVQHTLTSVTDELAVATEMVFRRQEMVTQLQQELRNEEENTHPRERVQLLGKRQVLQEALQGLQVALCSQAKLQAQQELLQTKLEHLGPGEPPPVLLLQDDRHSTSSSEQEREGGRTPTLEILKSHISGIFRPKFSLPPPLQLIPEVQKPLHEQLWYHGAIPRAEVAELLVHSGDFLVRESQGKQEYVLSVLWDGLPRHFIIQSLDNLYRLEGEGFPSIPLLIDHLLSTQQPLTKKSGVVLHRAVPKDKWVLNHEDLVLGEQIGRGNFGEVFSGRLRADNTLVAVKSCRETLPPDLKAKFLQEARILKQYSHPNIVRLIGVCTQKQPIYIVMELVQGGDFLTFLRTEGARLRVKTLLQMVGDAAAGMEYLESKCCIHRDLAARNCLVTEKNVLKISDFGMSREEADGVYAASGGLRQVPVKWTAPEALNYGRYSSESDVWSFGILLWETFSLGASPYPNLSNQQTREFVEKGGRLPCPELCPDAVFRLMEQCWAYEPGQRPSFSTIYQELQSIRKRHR
Sequence of FGFR3 (P22607 whole entry, looked up): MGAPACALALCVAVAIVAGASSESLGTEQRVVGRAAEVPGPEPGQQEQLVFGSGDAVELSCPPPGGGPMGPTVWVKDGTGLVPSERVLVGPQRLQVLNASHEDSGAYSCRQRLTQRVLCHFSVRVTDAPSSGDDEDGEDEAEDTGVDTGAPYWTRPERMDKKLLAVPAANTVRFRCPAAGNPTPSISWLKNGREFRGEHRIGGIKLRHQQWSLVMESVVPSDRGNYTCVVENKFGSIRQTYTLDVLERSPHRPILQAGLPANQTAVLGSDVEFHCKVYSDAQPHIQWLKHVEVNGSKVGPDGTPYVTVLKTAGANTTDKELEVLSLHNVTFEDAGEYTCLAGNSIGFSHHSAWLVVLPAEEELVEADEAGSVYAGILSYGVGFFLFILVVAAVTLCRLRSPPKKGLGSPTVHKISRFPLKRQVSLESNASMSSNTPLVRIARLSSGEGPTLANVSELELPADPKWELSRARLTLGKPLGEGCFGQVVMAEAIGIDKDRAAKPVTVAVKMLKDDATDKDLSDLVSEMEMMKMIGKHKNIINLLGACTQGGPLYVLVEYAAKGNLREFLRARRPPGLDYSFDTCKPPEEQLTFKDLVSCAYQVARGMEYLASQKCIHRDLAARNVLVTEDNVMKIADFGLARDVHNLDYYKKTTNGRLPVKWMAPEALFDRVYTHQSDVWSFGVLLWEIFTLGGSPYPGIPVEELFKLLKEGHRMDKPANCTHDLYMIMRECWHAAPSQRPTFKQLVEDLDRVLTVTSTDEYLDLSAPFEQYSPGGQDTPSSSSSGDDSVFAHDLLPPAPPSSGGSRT
Sequence of Hck (P08631 whole entry, looked up): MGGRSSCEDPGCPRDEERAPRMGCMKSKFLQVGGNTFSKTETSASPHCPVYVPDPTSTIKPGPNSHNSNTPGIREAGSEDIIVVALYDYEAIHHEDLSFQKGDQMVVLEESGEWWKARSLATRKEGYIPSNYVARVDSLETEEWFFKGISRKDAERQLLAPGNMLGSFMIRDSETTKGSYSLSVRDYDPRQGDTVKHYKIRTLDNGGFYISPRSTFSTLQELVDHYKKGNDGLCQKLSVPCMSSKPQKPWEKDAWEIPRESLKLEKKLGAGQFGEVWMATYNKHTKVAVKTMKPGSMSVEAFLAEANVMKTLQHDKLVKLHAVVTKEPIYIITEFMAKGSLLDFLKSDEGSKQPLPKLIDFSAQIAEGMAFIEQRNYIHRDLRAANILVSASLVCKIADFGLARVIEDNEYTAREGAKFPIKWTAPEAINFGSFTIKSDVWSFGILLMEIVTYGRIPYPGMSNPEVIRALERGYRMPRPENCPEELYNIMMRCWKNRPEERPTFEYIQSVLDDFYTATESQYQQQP
Sequence of Grb2 SH2 (P62993 whole entry, looked up): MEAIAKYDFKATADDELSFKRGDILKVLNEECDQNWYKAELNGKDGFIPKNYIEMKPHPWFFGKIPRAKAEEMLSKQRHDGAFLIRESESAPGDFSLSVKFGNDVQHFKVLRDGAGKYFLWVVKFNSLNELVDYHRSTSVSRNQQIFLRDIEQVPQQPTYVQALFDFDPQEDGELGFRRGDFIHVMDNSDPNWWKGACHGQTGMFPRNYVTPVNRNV
Sequence of EPHB1 (P54762 whole entry, looked up): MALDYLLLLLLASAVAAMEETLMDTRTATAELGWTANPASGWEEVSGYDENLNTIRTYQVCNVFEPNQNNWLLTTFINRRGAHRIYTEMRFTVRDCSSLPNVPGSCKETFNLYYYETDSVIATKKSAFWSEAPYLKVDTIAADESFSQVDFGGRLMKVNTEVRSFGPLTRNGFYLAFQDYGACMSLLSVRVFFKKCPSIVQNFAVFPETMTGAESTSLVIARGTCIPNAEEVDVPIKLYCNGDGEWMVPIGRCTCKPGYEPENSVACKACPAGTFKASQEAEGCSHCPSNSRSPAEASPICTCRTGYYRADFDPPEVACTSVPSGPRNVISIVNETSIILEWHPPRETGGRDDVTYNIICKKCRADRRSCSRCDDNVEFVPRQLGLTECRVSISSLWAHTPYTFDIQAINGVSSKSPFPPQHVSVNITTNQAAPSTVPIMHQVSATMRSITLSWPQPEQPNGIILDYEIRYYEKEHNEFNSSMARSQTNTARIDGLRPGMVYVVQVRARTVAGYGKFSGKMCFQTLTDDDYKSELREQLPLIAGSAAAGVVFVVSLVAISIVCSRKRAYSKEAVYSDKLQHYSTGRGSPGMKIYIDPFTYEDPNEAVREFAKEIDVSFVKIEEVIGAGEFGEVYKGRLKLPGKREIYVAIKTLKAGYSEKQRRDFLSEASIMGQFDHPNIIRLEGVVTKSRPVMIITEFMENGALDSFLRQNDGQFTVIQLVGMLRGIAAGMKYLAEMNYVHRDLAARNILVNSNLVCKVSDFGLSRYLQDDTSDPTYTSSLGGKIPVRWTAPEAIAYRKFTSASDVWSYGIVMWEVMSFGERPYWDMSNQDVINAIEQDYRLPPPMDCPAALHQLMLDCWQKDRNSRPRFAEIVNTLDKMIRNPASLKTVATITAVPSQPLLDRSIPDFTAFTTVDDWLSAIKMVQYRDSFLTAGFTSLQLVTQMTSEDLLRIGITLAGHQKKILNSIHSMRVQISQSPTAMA
Sequence of Fyn (P06241 whole entry, looked up): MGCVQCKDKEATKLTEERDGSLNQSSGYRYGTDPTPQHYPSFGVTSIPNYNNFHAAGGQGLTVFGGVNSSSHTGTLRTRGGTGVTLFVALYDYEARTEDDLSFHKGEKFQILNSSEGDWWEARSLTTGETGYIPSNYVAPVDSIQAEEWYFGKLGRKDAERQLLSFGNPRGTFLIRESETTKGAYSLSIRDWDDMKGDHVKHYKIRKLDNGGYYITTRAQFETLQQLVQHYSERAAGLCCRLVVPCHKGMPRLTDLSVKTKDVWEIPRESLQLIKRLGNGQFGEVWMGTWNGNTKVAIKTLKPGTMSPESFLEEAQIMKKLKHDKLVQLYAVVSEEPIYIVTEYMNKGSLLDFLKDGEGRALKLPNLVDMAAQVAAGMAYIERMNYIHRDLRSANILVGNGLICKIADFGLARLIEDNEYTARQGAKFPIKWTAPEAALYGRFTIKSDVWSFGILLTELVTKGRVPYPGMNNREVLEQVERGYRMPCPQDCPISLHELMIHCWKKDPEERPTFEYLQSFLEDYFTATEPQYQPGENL
Sequence of Jak2 (O60674 whole entry, looked up): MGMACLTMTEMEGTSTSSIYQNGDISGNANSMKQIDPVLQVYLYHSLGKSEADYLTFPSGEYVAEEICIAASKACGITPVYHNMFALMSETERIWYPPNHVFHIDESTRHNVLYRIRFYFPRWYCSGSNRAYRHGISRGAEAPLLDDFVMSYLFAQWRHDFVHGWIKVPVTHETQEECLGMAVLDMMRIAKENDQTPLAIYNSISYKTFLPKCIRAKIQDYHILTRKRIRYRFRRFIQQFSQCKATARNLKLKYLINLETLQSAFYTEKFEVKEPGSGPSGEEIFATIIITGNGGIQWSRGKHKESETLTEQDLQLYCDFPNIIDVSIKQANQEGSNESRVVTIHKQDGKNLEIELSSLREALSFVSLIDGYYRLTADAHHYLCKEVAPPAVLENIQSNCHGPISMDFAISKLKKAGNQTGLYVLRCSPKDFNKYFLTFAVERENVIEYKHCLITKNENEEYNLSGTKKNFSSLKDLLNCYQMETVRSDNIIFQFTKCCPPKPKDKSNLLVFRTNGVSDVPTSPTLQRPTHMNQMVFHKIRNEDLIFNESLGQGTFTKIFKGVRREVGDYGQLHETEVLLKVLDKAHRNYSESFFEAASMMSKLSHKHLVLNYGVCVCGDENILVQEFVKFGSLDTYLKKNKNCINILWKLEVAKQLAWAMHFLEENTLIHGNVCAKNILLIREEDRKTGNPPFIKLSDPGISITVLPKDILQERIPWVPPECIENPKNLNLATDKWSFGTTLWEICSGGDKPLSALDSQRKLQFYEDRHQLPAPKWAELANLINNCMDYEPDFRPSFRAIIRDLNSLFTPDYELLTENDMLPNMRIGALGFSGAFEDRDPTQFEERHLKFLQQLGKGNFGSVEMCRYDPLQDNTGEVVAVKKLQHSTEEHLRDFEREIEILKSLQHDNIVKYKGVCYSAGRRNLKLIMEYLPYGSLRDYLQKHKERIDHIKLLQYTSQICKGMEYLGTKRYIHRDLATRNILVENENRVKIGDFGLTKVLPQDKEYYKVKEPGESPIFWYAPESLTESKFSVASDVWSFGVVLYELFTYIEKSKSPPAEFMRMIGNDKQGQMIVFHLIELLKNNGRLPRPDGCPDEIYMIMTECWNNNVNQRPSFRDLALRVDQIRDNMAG

Row | Sequence | phosphorylation enrichment (EPHB2) | phosphorylation enrichment (Fer (mouse)) | phosphorylation enrichment (c-Abl (mouse)) | phosphorylation enrichment (Jak2) | phosphorylation enrichment (c-Src) | phosphorylation enrichment (Hck) | phosphorylation enrichment (AncSZ) | phosphorylation enrichment (Fyn) | phosphorylation enrichment (Fes) | phosphorylation enrichment (EPHB1) | phosphorylation enrichment (MERTK) | phosphorylation enrichment (FGFR3) | phosphorylation enrichment (FGFR1) | SH2 binding enrichment (c-Src SH2) | SH2 binding enrichment (Grb2 SH2) | SH2 binding enrichment (SHP2-C SH2)
1 | ISIFRYAKGQP [MPZ_Y82_H81R] | 0.577 | 0.414 | 0.574 | 0.969 | 0.404 | 0.402 | 0.791 | 0.464 | 0.937 | 0.461 | 0.49 | 0.685 | 0.486 | 0.596 | 0.843 | 0.534
2 | ANYTEYVATSW [CDKL5_Y171_R175S] | 8.89 | 0.555 | 0.812 | 0.897 | 0.763 | 0.672 | 1.34 | 0.722 | 0.867 | 7.89 | 0.815 | 2.82 | 3.44 | 0.592 | 0.874 | 0.665
3 | VFAANYFKLLG [ROR2_Y645_D644N_YF] | 0.648 | 0.472 | 0.73 | 5.33 | 0.56 | 0.526 | 0.872 | 0.58 | 1.04 | 0.645 | 1.13 | 1.58 | 2.44 | 1.03 | 0.991 | 0.985
4 | FAADFYKLLGN [ROR2_Y646_YF] | 0.512 | 0.366 | 0.738 | 1.16 | 0.524 | 0.484 | 1.02 | 0.366 | 1.01 | 0.474 | 0.438 | 0.66 | 0.365 | 0.431 | 0.849 | 0.821
5 | GGGMIYPLDLF | 0.496 | 0.534 | 0.804 | 0.941 | 0.515 | 0.551 | 0.913 | 0.6 | 1.02 | 0.527 | 0.688 | 0.637 | 0.503 | 0.556 | 0.959 | 0.562
6 | ISDEAYVMAGV [ERBB2_Y772_L768S] | 0.53 | 0.564 | 0.62 | 0.656 | 0.504 | 0.541 | 1.15 | 0.603 | 0.81 | 0.495 | 0.436 | 0.736 | 0.494 | 0.543 | 0.811 | 0.6
7 | GDSVQYNRTTD [MLPH_Y454_P451S] | 0.38 | 0.457 | 0.548 | 0.728 | 0.422 | 0.498 | 0.612 | 0.469 | 0.999 | 0.486 | 0.419 | 0.498 | 0.487 | 0.481 | 0.718 | 0.704
8 | TSNQEYLDLSM [FGFR1_Y766] | 0.626 | 0.457 | 1.02 | 1.03 | 0.492 | 0.464 | 1.14 | 0.485 | 1.08 | 0.8 | 0.437 | 1.17 | 1.53 | 0.487 | 0.863 | 0.781
9 | MGRVNYGAFIN [GLB1_Y485_YF] | 0.498 | 0.382 | 0.472 | 0.616 | 0.562 | 0.422 | 0.567 | 0.408 | 0.707 | 0.399 | 0.426 | 0.496 | 0.398 | 0.585 | 0.903 | 0.969
10 | ATARPYRPFII [LRP5_Y1528_YF] | 0.469 | 0.406 | 1.05 | 0.589 | 0.389 | 0.405 | 0.465 | 0.359 | 0.61 | 0.356 | 0.469 | 0.566 | 0.402 | 0.861 | 1.11 | 0.625
11 | VLICAYLLHRG [PTEN_Y138_M134L] | 0.661 | 0.856 | 0.833 | 0.929 | 0.516 | 0.608 | 1.06 | 0.515 | 1.33 | 0.62 | 0.412 | 0.809 | 0.44 | 1.09 | 1.11 | 1.31
12 | LDMSQYFRLFN [CPT2_Y217] | 0.531 | 0.613 | 0.92 | 4.15 | 0.601 | 0.885 | 1.1 | 0.959 | 1.55 | 0.539 | 0.755 | 1.62 | 2.15 | 0.669 | 1.23 | 2.02
13 | YKGKNYKPLDL [RPL35_Y78_K77N] | 0.246 | 0.267 | 0.575 | 0.59 | 0.391 | 0.276 | 0.423 | 0.334 | 0.697 | 0.277 | 0.333 | 0.362 | 0.32 | 0.516 | 0.9 | 0.846
14 | ILNANYMAKRL [GLDC_Y839] | 0.363 | 0.458 | 0.394 | 0.436 | 0.34 | 0.366 | 0.476 | 0.412 | 0.514 | 0.334 | 0.446 | 0.412 | 0.368 | 0.461 | 1.08 | 0.509
15 | INNIDYFKKTT [FGFR2_Y656_YF] | 0.415 | 0.36 | 0.373 | 0.605 | 0.5 | 0.567 | 0.768 | 0.409 | 0.648 | 0.46 | 0.37 | 0.64 | 0.567 | 0.445 | 0.893 | 0.598
16 | DDIPLYLKGGV [COX7A2_Y44_E40D] | 0.701 | 0.401 | 0.673 | 1.02 | 0.435 | 0.513 | 1.01 | 0.459 | 1.12 | 0.525 | 0.41 | 0.737 | 0.496 | 0.479 | 0.862 | 0.663
17 | LTTPTYGDLNH [TUBB_Y222] | 1.44 | 1.07 | 0.702 | 0.84 | 3.12 | 4.7 | 1.41 | 5.58 | 1.47 | 1.14 | 0.836 | 1.11 | 1.03 | 0.662 | 1.02 | 0.748

Row | Sequence | phosphorylation enrichment (EPHB2) | phosphorylation enrichment (Fer (mouse)) | phosphorylation enrichment (c-Abl (mouse)) | phosphorylation enrichment (Jak2) | phosphorylation enrichment (c-Src) | phosphorylation enrichment (Hck) | phosphorylation enrichment (AncSZ) | phosphorylation enrichment (Fyn) | phosphorylation enrichment (Fes) | phosphorylation enrichment (EPHB1) | phosphorylation enrichment (MERTK) | phosphorylation enrichment (FGFR3) | phosphorylation enrichment (FGFR1) | SH2 binding enrichment (c-Src SH2) | SH2 binding enrichment (Grb2 SH2) | SH2 binding enrichment (SHP2-C SH2)
18 | SYCYRYRCAAQ [SUMF1_Y344_R349Q] | 0.424 | 0.346 | 0.471 | 0.599 | 0.399 | 0.5 | 0.768 | 0.419 | 0.599 | 0.382 | 0.515 | 0.464 | 0.499 | 1.5 | 1.42 | 1.43
19 | DLDLTSIFPNI [PTEN_Y27_Y27S_YF] | 0.485 | 0.441 | 0.677 | 0.726 | 0.358 | 0.497 | 0.861 | 0.475 | 0.814 | 0.402 | 0.447 | 0.578 | 0.301 | 0.48 | 0.722 | 0.524
20 | IRTGIYHGGEP [PIK3CA_Y361_V356I] | 0.428 | 0.399 | 0.516 | 0.653 | 0.521 | 0.572 | 0.522 | 0.551 | 0.501 | 0.392 | 0.507 | 0.447 | 0.385 | 0.364 | 0.751 | 0.585
21 | PKEEPYKMQEK [SLC5A3_Y565_Q566K] | 0.403 | 0.612 | 0.969 | 0.892 | 0.607 | 0.415 | 0.885 | 0.386 | 1.21 | 0.544 | 0.467 | 0.587 | 0.565 | 0.541 | 0.766 | 0.624
22 | ADEDIYGVLPA [LYNtide_2014] | 1.36 | 2.99 | 2.19 | 1.28 | 2.97 | 3.51 | 1.49 | 4.82 | 1.36 | 0.705 | 2.76 | 0.982 | 0.606 | 0.401 | 1.02 | 0.794
23 | ELCSEYRKSRK [SPINK5_Y440] | 0.489 | 0.457 | 0.555 | 0.474 | 0.375 | 0.412 | 0.562 | 0.378 | 0.803 | 0.425 | 0.443 | 0.394 | 0.429 | 0.484 | 1.03 | 0.726
24 | EKRDAYVSCLN [GSR_Y150_R153C] | 0.472 | 0.437 | 0.776 | 0.726 | 0.514 | 0.53 | 0.925 | 0.481 | 1.1 | 0.568 | 0.472 | 0.702 | 0.563 | 0.878 | 1.19 | 0.934
25 | GYKVRYATGSI [FGFR1_Y210_W213G] | 0.479 | 0.34 | 0.478 | 0.456 | 0.398 | 0.434 | 0.499 | 0.401 | 0.625 | 0.537 | 0.32 | 0.423 | 0.416 | 1.03 | 1.1 | 1.11
26 | HFPFQCHRQLY [F12_Y53_Y53C] | 0.645 | 0.385 | 0.532 | 0.861 | 0.422 | 0.681 | 0.689 | 0.528 | 1.05 | 0.559 | 0.597 | 0.564 | 0.639 | 1.16 | 1.21 | 1.15
27 | RLLVVYPSTQR [HBB_Y36_W38S] | 0.931 | 0.7 | 0.899 | 1.04 | 0.646 | 1.17 | 1.19 | 0.802 | 1.75 | 0.602 | 0.753 | 0.94 | 1.07 | 1.47 | 2.08 | 2.26
28 | KMKGDYYRSLA [YWHAG_Y130_Y133S] | 0.401 | 0.325 | 0.541 | 0.616 | 0.389 | 0.444 | 0.54 | 0.388 | 0.562 | 0.369 | 0.434 | 0.513 | 0.718 | 0.891 | 0.888 | 0.87
29 | CEHRGFLFLAI [TEK_Y897_Y897F_YF] | 0.513 | 0.515 | 0.907 | 1.06 | 0.506 | 0.434 | 0.949 | 0.403 | 1.16 | 0.392 | 0.442 | 0.651 | 0.484 | 0.759 | 1.47 | 0.996
30 | FLTQHHDAKPQ [ANG_Y38_Y38H] | 0.381 | 0.468 | 0.552 | 0.464 | 0.396 | 0.353 | 0.497 | 0.279 | 0.742 | 0.33 | 0.44 | 0.451 | 0.447 | 0.604 | 0.876 | 0.669
31 | PLQKTYNYNML [SLC4A1_Y553_V557M] | 1.03 | 0.395 | 0.816 | 0.649 | 0.52 | 0.578 | 0.878 | 0.39 | 1.01 | 0.76 | 0.52 | 0.678 | 0.589 | 1.37 | 0.78 | 0.623
32 | GYEEAYSVSKK [PAFAH1B1_Y28_F31S] | 0.432 | 0.469 | 0.536 | 0.661 | 0.601 | 0.447 | 0.893 | 0.435 | 1.01 | 0.491 | 0.367 | 0.607 | 0.364 | 1.85 | 0.798 | 0.796
33 | STEPQYQPGEN [SRC_Y530] | 0.566 | 0.392 | 0.564 | 0.681 | 0.38 | 0.499 | 0.825 | 0.383 | 0.817 | 0.516 | 0.356 | 0.476 | 0.478 | 0.558 | 0.814 | 0.712
